Results from US20120058906A1 (published 2012).
Positions count from the first letter of the chain named.

What was measured:
[1] = target: T1, rHuman IGF-1 sR (insulin-like growth factor-1 soluble receptor), CF (R&D Systems Cat#391-GR) (human, UniProt P08069 31-932); assay: MSD ECL titration, Fab 9.3 nM, blank 287
T1 construct: Bought soluble receptor; also called IGF-R1

[2] = target: T2, rHuman Notch-1/Fc Chimera, CF (R&D Systems Cat#3647-TK) (human, UniProt P46531 19-526); assay: MSD ECL titration, Fab 9.3 nM, blank 287
T2 construct: Bought Fc chimera; Fc part of the bought chimera not given

[3] = target: T3, rHuman CD44/Fc Chimera, CF (R&D Systems Cat#3660-CD) (human, UniProt P16070 21-220); assay: MSD ECL titration, Fab 9.3 nM, blank 287
T3 construct: Bought Fc chimera; Fc part of the bought chimera not given

[4] = target: T4, rHuman ErbB2/Fc Chimera, CF (R&D Systems Cat#1129-ER) (human, UniProt P04626 23-652); assay: MSD ECL titration, Fab 9.3 nM, blank 287
T4 construct: Bought Fc chimera; also called HER2/neu; Fc part of the bought chimera not given

[5] = target: T5, rHuman Erythropoietin R/Fc Chimera, CF (R&D Systems Cat#963-ER) (human, UniProt P19235 25-250); assay: MSD ECL titration, Fab 9.3 nM, blank 287
T5 construct: Bought Fc chimera; also called EPO R/Fc; EPOR; Fc part of the bought chimera not given
T5 sequence: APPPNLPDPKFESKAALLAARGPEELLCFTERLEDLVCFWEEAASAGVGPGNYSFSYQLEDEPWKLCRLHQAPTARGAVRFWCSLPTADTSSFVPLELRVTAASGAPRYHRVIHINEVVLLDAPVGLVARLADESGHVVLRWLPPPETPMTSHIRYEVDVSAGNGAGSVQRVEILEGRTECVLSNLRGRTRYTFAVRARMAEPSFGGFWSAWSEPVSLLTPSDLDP

[6] = target: T6, rHuman EGF R/Fc Chimera, CF (R&D Systems Cat#344-ER) (human, UniProt P00533 25-645); assay: MSD ECL titration, Fab 9.3 nM, blank 287
T6 construct: Bought Fc chimera; Fc part of the bought chimera not given

[7] = target: T7, Recombinant Human DLL4 (R&D Systems Cat#1506-D4/CF) (human, UniProt Q9NR61 27-524); assay: MSD ECL titration, Fab 9.3 nM, blank 287
T7 construct: Bought recombinant protein; also called rHuman DLL4; delta-like protein 4

[8] = target: T8, rHuman HGF R/c-MET/Fc Chimera, CF (R&D Systems Cat#358-MT/CF) (human, UniProt P08581 25-932); assay: MSD ECL titration, Fab 9.3 nM, blank 287
T8 construct: Bought Fc chimera; also called HGF R/Fc; Fc part of the bought chimera not given

[9] = target: T9, rHuman IGF-1 sR (insulin-like growth factor-1 soluble receptor), CF (R&D Systems Cat#391-GR) (human, UniProt P08069 31-932); assay: ECL (MSD multi-spot), antigen on plate, Fab 0.4 nM
T9 construct: Bought soluble receptor; also called IGF-R1

[10] = target: T10, rHuman Notch-1/Fc Chimera, CF (R&D Systems Cat#3647-TK) (human, UniProt P46531 19-526); assay: ECL (MSD multi-spot), antigen on plate, Fab 0.4 nM
T10 construct: Bought Fc chimera; not shown: Fc of the bought chimera

[11] = target: T11, rHuman ErbB2/Fc Chimera, CF (R&D Systems Cat#1129-ER) (human, UniProt P04626 23-652); assay: ECL (MSD multi-spot), antigen spotted on plate; Fab 705 nM; blank spot 483
T11 construct: Bought reagent; also called HER2/neu; human epidermal growth factor 2 receptor; Fc part of the bought chimera not given

[12] = target: T12, rHuman EGF R/Fc Chimera, CF (R&D Systems Cat#344-ER) (human, UniProt P00533 25-645); assay: as above
T12 construct: Bought reagent; also called epidermal growth factor receptor; Fc part of the bought chimera not given

[13] = target: T13, rHuman CD44/Fc Chimera, CF (R&D Systems Cat#3660-CD) (human, UniProt P16070 21-220); assay: as above
T13 construct: Bought reagent; Fc part of the bought chimera not given

[14] = target: T14, rHuman Notch-1/Fc Chimera, CF (R&D Systems Cat#3647-TK) (human, UniProt P46531 19-526); assay: as above
T14 construct: Bought reagent; Fc part of the bought chimera not given

[15] = target: T15, rHuman Erythropoietin R/Fc Chimera, CF (R&D Systems Cat#963-ER) (human, UniProt P19235 25-250); assay: as above
T15 construct: Bought reagent; also called EPO R/Fc; Epo R; Fc part of the bought chimera not given
T15 sequence: T5 sequence

[16] = target: T16, rHuman IGF-1 sR (IGF-1 sR), CF (R&D Systems Cat#391-GR) (human, UniProt P08069 31-932); assay: as above
T16 construct: Bought soluble receptor; also called insulin-like growth factor-1 soluble receptor; IGF-R1

[17] = target: T17, rHuman P-Cadherin/Fc Chimera, CF (R&D Systems Cat#861-PC) (human, UniProt P22223 108-654); assay: as above
T17 construct: Bought reagent; also called CDH3; Fc part of the bought chimera not given

[18] = target: T18, Recombinant Human DLL4 (R&D Systems Cat#1506-D4/CF) (human, UniProt Q9NR61 27-524); assay: as above
T18 construct: Bought reagent; also called delta-like protein 4

[19] = target: T19, rHuman HGF R/c-MET/Fc Chimera, CF (R&D Systems Cat#358-MT/CF) (human, UniProt P08581 25-932); assay: as above
T19 construct: Bought reagent; also called HGF R/Fc; hepatocyte growth factor receptor; Fc part of the bought chimera not given
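Further: blank spot per well as comparator with Hit at signal to blank ratio of 4 or more.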

B1: Fab VH1-46_IGHD6-6*01_IGHJ1*01 & L6_IGKJ1*01 (Fab, V domains shown)
VH: QVQLVQSGAEVKKPGASVKVSCKASGYTFTSYYMHWVRQAPGQGLEWMGIINPSGGSTSYAQKFQGRVTMTRDTSTSTVYMELSSLRSEDTAVYYCAREEYSSSSAEYFQHWGQGTLVTVSS
VL: not shown
notes: Expressed in E. coli as Fab: heavy chain with CH1 plus Flag and His tags from Plasmid A, kappa light chain constant region from Plasmid C; also called Fab No. 1
[1]
  ECL signal: 315
[2]
  ECL signal: 492
[3]
  ECL signal: 396
[4]
  ECL signal: 354
[5]
  ECL signal: 306
[6]
  ECL signal: 424
[7]
  ECL signal: 13200
[8]
  ECL signal: 324

B2: Fab VH1-46_IGHD6-6*01_IGHJ1*01_S102A_S103P_S104F & L6_IGKJ1*01_S30N (Fab, V domains shown)
VH: B1 VH with S102A, S103P, S104F
VL: EIVLTQSPATLSLSPGERATLSCRASQSVNSYLAWYQQKPGQAPRLLIYDASNRATGIPARFSGSGSGTDFTLTISSLEPEDFAVYYCQQRSNWPPWTFGQGTKVEIKR
notes: Fab
[9]
  ECL signal: 141 ECL signal
[10]
  ECL signal: 197 ECL signal

B3: Fab VH1-46_IGHD3-10*01_IGHJ4*01 & B3_IGKJ1*01 (Fab, V domains shown)
VH: QVQLVQSGAEVKKPGASVKVSCKASGYTFTSYYMHWVRQAPGQGLEWMGIINPSGGSTSYAQKFQGRVTMTRDTSTSTVYMELSSLRSEDTAVYYCAREYYYGSGSYYNDYFDYWGQGTLVTVSS
VL: not shown
notes: also called IGHV1-46*01
[11]
  ECL signal: 671
[12]
  ECL signal: 692
[13]
  ECL signal: 693
[14]
  ECL signal: 958
[15]
  ECL signal: 4890
[16]
  ECL signal: 630
[17]
  ECL signal: 827
[18]
  ECL signal: 981
[19]
  ECL signal: 839
